Experimental data taken from patent US20080102072A1.

Legend:
[1] = biological target: human IFNAR1, membrane receptor on cells (U266 human myeloma cells; Hela and A549 cells in the functional assays) (human) (UniProt P17181); test: cell-based or functional assay
[2] = biological target: hIFNAR1 ECD-IgG fusion protein (immunoadhesin, pRK5 hIFNAR1-IgG clone 53.65), wild type (human); test: competitive radioimmunoprecipitation with 125I-hIFNAR1-IgG and unlabeled hIFNAR1-IgG, Scatchard analysis
[3] = biological target: IFNAR1-IgG single alanine mutant E70A (human); test: capture ELISA, single alanine mutant IFNAR1-IgG captured by goat anti-hIgG-Fc; OD as % of wild type IFNAR1-IgG
[4] = biological target: IFNAR1-IgG single alanine mutant E292A (human); test: as above
[5] = biological target: IFNAR1-IgG single alanine mutant E291A (human); test: as above
[6] = biological target: IFNAR1-IgG single alanine mutant K249A (human); test: as above
[7] = biological target: IFNAR1-IgG single alanine mutant E298A (human); test: as above
[8] = biological target: IFNAR1-IgG single alanine mutant K294A (human); test: as above
[9] = biological target: IFNAR1-IgG single alanine mutant K247A (human); test: as above
[10] = biological target: IFNAR1-IgG single alanine mutant R74A (human); test: as above
[11] = biological target: IFNAR1-IgG single alanine mutant H244A (human); test: as above
[12] = biological target: IFNAR1-IgG single alanine mutant D296A (human); test: as above
[13] = biological target: IFNAR1-IgG single alanine mutant K72A (human); test: as above
[14] = biological target: IFNAR1-IgG single alanine mutant E69A (human); test: as above
[15] = biological target: IFNAR1-IgG multiple alanine mutant 4, residues 103-111 (… to …) (human); test: capture ELISA, mutant IFNAR1-IgG captured by goat anti-hIgG-Fc, mAb 10 µg/ml; OD as % of wild type IFNAR1-IgG
[16] = biological target: IFNAR1-IgG multiple alanine mutant 3, residues 76-80 (RAEKE to AAAAA) (human); test: as above
[17] = biological target: IFNAR1-IgG multiple alanine mutant 2, residues 69-74 (EEIKLR to AAIALA) (human); test: as above
[18] = biological target: IFNAR1-IgG multiple alanine mutant 6, residues 157-162 (RHKIYK to AAAIYA) (human); test: as above
[19] = biological target: IFNAR1-IgG multiple alanine mutant 9, residues 352-359 (ERKIIEKK to AAAIIAAA) (human); test: as above
[20] = biological target: IFNAR1-IgG multiple alanine mutant 7, residues 244-249 (HLYKWK to ALYAWA) (human); test: as above
[21] = biological target: IFNAR1-IgG multiple alanine mutant 10, residues 383-388 (DEKLNK to AAALNA) (human); test: as above
[22] = biological target: IFNAR1-IgG multiple alanine mutant 5, residues 148-152 (EERIE to AAAIA) (human); test: as above
[23] = biological target: IFNAR1-IgG multiple alanine mutant 8, residues 291-298 (EEIKFDTE to AAIAFATA) (human); test: as above
[24] = biological target: IFNAR1-IgG multiple alanine mutant 1, residues 19-25 (RWNRSDE to AWNASAA) (human); test: as above
[25] = biological target: human IFNAR1, membrane receptor on cells (U266 human myeloma cells; Hela and A549 cells in the functional assays) (human) (UniProt P17181); test: flow cytometry on U266 cells, F-mAb preincubated with competitor: 10 µg soluble hIFNAR1-IgG Mutant #7 (244-249)
[26] = biological target: human IFNAR1, membrane receptor on cells (U266 human myeloma cells; Hela and A549 cells in the functional assays) (human) (UniProt P17181); test: flow cytometry on U266 cells, fluoresceinated mAb 1 µg/100 µl, no soluble hIFNAR1
[27] = biological target: human IFNAR1, membrane receptor on cells (U266 human myeloma cells; Hela and A549 cells in the functional assays) (human) (UniProt P17181); test: flow cytometry on U266 cells, F-mAb preincubated with competitor: 10 µg soluble hIFNAR1-IgG Mutant #8 (291-298)
[28] = biological target: human IFNAR1, membrane receptor on cells (U266 human myeloma cells; Hela and A549 cells in the functional assays) (human) (UniProt P17181); test: flow cytometry on U266 cells, F-mAb preincubated with competitor: 10 µg soluble wild type hIFNAR1-IgG

IFNAR1-IgG single alanine mutant D296A (human), sequence (chain, as listed by the source D296A D296A limits assumed): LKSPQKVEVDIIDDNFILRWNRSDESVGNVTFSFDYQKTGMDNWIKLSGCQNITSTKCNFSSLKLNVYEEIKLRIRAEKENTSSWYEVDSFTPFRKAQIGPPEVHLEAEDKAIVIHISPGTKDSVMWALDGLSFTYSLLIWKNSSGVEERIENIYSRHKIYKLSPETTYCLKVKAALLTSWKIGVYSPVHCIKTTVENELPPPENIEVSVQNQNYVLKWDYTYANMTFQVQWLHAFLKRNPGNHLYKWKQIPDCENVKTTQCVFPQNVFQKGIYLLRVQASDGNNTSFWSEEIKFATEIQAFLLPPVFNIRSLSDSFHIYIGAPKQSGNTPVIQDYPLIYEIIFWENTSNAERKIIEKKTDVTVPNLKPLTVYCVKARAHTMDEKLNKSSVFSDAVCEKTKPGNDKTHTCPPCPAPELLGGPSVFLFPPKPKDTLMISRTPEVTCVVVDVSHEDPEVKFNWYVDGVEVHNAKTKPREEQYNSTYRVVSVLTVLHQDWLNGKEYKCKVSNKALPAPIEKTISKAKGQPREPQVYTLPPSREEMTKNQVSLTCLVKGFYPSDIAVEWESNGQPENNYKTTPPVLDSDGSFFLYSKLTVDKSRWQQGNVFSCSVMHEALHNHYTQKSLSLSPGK
IFNAR1-IgG multiple alanine mutant 9, residues 352-359 (ERKIIEKK to AAAIIAAA) (human), sequence (chain, as listed by the source mutant limits assumed): as the sequence (chain, as listed by the source D296A D296A limits assumed) above, with A296D, E352A, R353A, K354A, E357A, K358A, K359A counted along it
IFNAR1-IgG single alanine mutant E69A (human), sequence (chain, as listed by the source E69A E69A limits assumed): as the sequence (chain, as listed by the source D296A D296A limits assumed) above, with E69A, A296D counted along it
IFNAR1-IgG single alanine mutant E292A (human), sequence (chain, as listed by the source E292A E292A limits assumed): as the sequence (chain, as listed by the source D296A D296A limits assumed) above, with E292A, A296D counted along it
IFNAR1-IgG multiple alanine mutant 10, residues 383-388 (DEKLNK to AAALNA) (human), sequence (chain, as listed by the source mutant limits assumed): as the sequence (chain, as listed by the source D296A D296A limits assumed) above, with A296D, D383A, E384A, K385A, K388A counted along it
IFNAR1-IgG multiple alanine mutant 8, residues 291-298 (EEIKFDTE to AAIAFATA) (human), sequence (chain, as listed by the source mutant limits assumed): as the sequence (chain, as listed by the source D296A D296A limits assumed) above, with E291A, E292A, K294A, E298A counted along it
IFNAR1-IgG single alanine mutant K247A (human), sequence (chain, as listed by the source K247A K247A limits assumed): as the sequence (chain, as listed by the source D296A D296A limits assumed) above, with K247A, A296D counted along it
IFNAR1-IgG multiple alanine mutant 1, residues 19-25 (RWNRSDE to AWNASAA) (human), sequence (chain, as listed by the source mutant limits assumed): as the sequence (chain, as listed by the source D296A D296A limits assumed) above, with R19A, R22A, D24A, E25A, A296D counted along it

Substance	EC50 of mAb neutralizing the anti-viral cytopathic effect of 10 units/ml IFNα1 on A549 cells (EMC virus) [1] [µg/mL]	EC50 of mAb neutralizing the anti-viral cytopathic effect of 10 units/ml IFNα2/1 on A549 cells (EMC virus) [1] [µg/mL]	EC50 of mAb neutralizing the anti-viral cytopathic effect of 10 units/ml IFNα2 on A549 cells (EMC virus) [1] [µg/mL]	EC50 of mAb neutralizing the anti-viral cytopathic effect of 10 units/ml IFNα5 on A549 cells (EMC virus) [1] [µg/mL]	EC50 of mAb neutralizing the anti-viral cytopathic effect of 10 units/ml IFNα8 on A549 cells (EMC virus) [1] [µg/mL]	EC50 of mAb neutralizing the anti-viral cytopathic effect of 10 units/ml IFNβ on A549 cells (EMC virus) [1] [µg/mL]	Kd [2] [pM]	% Wild type binding of mAbs [3] [%]	% Wild type binding of mAbs [4] [%]	% Wild type binding of mAbs [5] [%]	% Wild type binding of mAbs [6] [%]	% Wild type binding of mAbs [7] [%]	% Wild type binding of mAbs [8] [%]	% Wild type binding of mAbs [9] [%]	% Wild type binding of mAbs [10] [%]	% Wild type binding of mAbs [11] [%]	% Wild type binding of mAbs [12] [%]	% Wild type binding of mAbs [13] [%]	% Wild type binding of mAbs [14] [%]	% Wild type binding of mAbs [15] [%]	other results
anti-hIFNAR1 monoclonal antibody 5A8 (hybridoma ATCC HB 12129)	> 30	> 30	> 30	> 30	> 30	> 30	174	83	66	61	71	72	82	93	84	99	70	110	91	34	% Wild type binding of mAbs [16]: 109%; % Wild type binding of mAbs [17]: 67%; % Wild type binding of mAbs [18]: 100%; % Wild type binding of mAbs [19]: 81%; % Wild type binding of mAbs [20]: 110%; % Wild type binding of mAbs [21]: 83%; % Wild type binding of mAbs [22]: 80%; % Wild type binding of mAbs [23]: 75%; % Wild type binding of mAbs [24]: 110%
anti-hIFNAR1 monoclonal antibody 2E8 (hybridoma ATCC HB 12130)	> 30	> 30	> 30	> 30	> 30	> 30	97	80	29	3	54	31	54	66	53	96	3	89	72	33	Mean Fluorescence Intensity [25]: 3.27; Mean Fluorescence Intensity [26]: 7.96; Mean Fluorescence Intensity [27]: 7.6; Mean Fluorescence Intensity [28]: 3.16; % Wild type binding of mAbs [16]: 69%; % Wild type binding of mAbs [17]: 18%; % Wild type binding of mAbs [18]: 77%; % Wild type binding of mAbs [19]: 81%; % Wild type binding of mAbs [20]: 77%; % Wild type binding of mAbs [21]: 116%; % Wild type binding of mAbs [22]: 43%; % Wild type binding of mAbs [23]: 0%; % Wild type binding of mAbs [24]: 84%
anti-hIFNAR1 monoclonal antibody 2H6 (hybridoma ATCC HB 12131)	> 30	> 30	> 30	> 30	> 30	> 30	3120	79	55	49	69	53	65	88	0	94	49	89	64	39	% Wild type binding of mAbs [16]: 48%; % Wild type binding of mAbs [17]: 0%; % Wild type binding of mAbs [18]: 90%; % Wild type binding of mAbs [19]: 101%; % Wild type binding of mAbs [20]: 105%; % Wild type binding of mAbs [21]: 93%; % Wild type binding of mAbs [22]: 68%; % Wild type binding of mAbs [23]: 64%; % Wild type binding of mAbs [24]: 77%
anti-hIFNAR1 monoclonal antibody 2E1 (hybridoma ATCC HB 12133)	3	3	1	1	1	> 30	66	81	34	7	5	36	54	74	57	92	5	90	72	66	Mean Fluorescence Intensity [25]: 7.82; Mean Fluorescence Intensity [26]: 7.6; Mean Fluorescence Intensity [27]: 7.65; Mean Fluorescence Intensity [28]: 2.83; % Wild type binding of mAbs [16]: 97%; % Wild type binding of mAbs [17]: 21%; % Wild type binding of mAbs [18]: 84%; % Wild type binding of mAbs [19]: 105%; % Wild type binding of mAbs [20]: 0%; % Wild type binding of mAbs [21]: 105%; % Wild type binding of mAbs [22]: 87%; % Wild type binding of mAbs [23]: 6%; % Wild type binding of mAbs [24]: 101%
